Experimental data: patent publication US20060270591A1, “Androgen receptor coregulators” (priority 2002, published 2006)

Tests used:
Format in all cases: cell-based
AR = assay: Immunocytofluorescence, semi-quantitative nuclear AR staining in COS-1 cells; settings: 10 nM DHT, p<0.0005
Description: 415. COS-1 cells were seeded on two-well Labtek II slides (Nalge) 24 hours before transfection. Two micrograms of DNA per 10^5 cell was transfected with the AR, with or without full length ARA70 (ARA70-FL) using FuGENE6 transfection reagent (Roche). […] Immunostaining was performed by incubation with anti-AR polyclonal antibody (NH27) or anti-ARA70 mouse monoclonal antibody (CC70), followed by incubation with either fluorescence-conjugated goat anti-rabbit or anti-mouse antibodies (ICN). The red signal represents the AR and the green signal represents ARA70.
416. Three hundred cells with normal morphologies and clear AR nuclear translocation were scored for AR staining using a fluorescence microscope. Cells were scored on a scale of one to five, with one representing the lowest AR staining intensity above the background level. The cells were then separated into two groups based on the presence or absence of ARA70.
417. The mean AR staining intensity and standard deviation were then calculated for the ARA70 negative and positive populations. Using […], a two sample t-test (assuming unequal variances) was then performed to determine if the difference in the mean AR staining intensities in the two populations was statistically significant (α=0.05).

PPAR-γ = molecular target: T1, PPAR-γ (Homo sapiens, UniProt P37231); assay: PPAR-γ transactivation reporter assay (PPRE-Luc) with SV
T1 sequence (P37231 1-505): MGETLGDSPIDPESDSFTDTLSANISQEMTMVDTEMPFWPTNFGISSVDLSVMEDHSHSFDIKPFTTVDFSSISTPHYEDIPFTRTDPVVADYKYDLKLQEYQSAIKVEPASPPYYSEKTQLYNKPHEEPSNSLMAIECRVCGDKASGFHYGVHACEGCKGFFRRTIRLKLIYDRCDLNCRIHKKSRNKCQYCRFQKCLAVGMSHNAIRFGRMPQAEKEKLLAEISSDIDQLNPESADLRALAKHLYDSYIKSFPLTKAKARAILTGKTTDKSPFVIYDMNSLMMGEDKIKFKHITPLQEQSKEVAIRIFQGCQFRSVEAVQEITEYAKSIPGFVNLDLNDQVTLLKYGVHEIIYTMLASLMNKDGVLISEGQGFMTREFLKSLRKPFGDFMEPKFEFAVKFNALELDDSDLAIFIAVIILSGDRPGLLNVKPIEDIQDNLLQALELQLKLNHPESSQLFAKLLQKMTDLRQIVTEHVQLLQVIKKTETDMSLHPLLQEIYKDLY
Description: (§1) 42. […] (A) The interaction of SV with AR, GR, PPAR-γ and ER-α is tested in mammalian two-hybrid assay. One μg plasmids expressing Gal4(DBD)-AR, GR, PPAR-γ or ER-α was co-transfected with 4 μg plasmids expressing VP16 or VP16-SVn to COS-1 cells. […] The assay method was the same as described in FIG. 29. Relative activities of ligand treatment to EtOH treatment are shown. (B) The coactivation function of SV in different receptors was assayed using reporter gene study. MMTV-Luc, PPRE-Luc, ERE-Luc are the reporter genes for AR, GR, PPAR-γ, and ER-α respectively. Lanes 1, 5, 9 and 13 are regarded as 1 fold in each panel.
(§2) 475. In AR transactivation activity assays, transfections were performed using SuperFect (Qiagen, Chatsworth, Calif.) following protocols described in manual provided by Qiagen. Briefly, cells were plated on 35 mm dishes and after 24 h were transfected using the SuperFect kit. The total DNA amount was adjusted to 2 μg with pSG5 or pEGFP vectors. The medium was changed to DMEM with 10% CD-FBS 2 h after transfection. After 24 h, the DMEM with 10% CD-FBS was changed again, and the cells were treated with various steroids. Cells were harvested after 24 h for dual-luciferase assay as described in protocol provided by Promega. At least three independent experiments were carried out in each case.

ER-α = molecular target: T2, ER-α (Homo sapiens, UniProt P03372); assay: ER-α transactivation reporter assay (ERE-Luc) with SV
T2 sequence (P03372 1-595): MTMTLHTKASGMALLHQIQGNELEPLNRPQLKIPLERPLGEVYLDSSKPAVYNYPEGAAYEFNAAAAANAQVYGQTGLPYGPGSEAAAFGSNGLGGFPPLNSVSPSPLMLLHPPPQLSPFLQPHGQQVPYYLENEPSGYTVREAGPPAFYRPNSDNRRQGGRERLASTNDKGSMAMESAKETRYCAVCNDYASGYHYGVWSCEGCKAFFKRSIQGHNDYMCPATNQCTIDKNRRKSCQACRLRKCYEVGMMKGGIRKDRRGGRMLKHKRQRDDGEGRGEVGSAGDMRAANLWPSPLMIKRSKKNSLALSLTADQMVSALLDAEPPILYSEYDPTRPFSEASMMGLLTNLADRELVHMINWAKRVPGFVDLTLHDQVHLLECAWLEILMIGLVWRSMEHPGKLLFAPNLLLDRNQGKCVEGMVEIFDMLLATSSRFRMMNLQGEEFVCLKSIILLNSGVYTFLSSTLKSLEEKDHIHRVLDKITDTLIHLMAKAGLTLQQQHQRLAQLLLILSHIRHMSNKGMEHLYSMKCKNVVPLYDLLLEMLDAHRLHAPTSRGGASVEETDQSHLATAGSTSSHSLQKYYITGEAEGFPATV
Description: as §1, §2

Chain of AR (P10275 with tags, fused parts or gaps DEL79-80/DUP473-473): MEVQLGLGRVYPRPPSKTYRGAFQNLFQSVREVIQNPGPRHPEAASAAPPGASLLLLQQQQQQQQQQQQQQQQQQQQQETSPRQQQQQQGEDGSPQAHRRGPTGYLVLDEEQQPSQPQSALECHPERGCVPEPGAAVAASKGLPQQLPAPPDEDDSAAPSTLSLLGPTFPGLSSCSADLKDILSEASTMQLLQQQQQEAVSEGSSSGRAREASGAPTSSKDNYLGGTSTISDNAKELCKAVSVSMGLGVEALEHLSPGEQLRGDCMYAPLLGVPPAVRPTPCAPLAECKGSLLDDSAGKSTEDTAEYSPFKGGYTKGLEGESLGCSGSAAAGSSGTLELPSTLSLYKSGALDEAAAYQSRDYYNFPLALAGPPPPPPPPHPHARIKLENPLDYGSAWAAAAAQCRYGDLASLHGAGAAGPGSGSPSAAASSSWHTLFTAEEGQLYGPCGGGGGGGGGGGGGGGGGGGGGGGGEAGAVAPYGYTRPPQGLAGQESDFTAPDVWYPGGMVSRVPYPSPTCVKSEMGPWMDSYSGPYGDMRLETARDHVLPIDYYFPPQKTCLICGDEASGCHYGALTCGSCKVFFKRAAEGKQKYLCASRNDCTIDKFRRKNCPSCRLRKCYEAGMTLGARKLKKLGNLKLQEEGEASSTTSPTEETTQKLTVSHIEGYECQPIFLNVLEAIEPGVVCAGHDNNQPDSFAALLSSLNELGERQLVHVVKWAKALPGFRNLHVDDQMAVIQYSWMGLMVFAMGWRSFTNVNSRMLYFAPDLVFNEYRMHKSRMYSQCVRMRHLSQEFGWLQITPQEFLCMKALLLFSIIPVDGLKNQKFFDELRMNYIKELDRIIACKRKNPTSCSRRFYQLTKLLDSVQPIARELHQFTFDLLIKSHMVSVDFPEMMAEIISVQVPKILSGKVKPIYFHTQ

Row | effect on the transactivation of PPAR-γ (PPAR-γ) | effect on the transactivation of ER-α (ER-α) | Substance | nuclear AR staining intensity (AR)
1 |  |  | ARA70: ligand-enhanced AR coregulator, full length ARA70 | significantly enhances nuclear AR staining intensity
2 | little effect | little effect | SV: supervillin, 205 kDa actin binding protein; bovine SV (a.a. 1-1792) used in reporter assays | 
